Data as given in patent publication US20200277373A1, “ANTI-TREM2 ANTIBODIES AND METHODS OF USE THEREOF” (Denali Therapeutics Inc., priority 2017, published 2020).
Values belong to the molecule of their own block, whether it stands above or below them.

Tests used:
soluble TREM2 (sTREM2) = target: T1, soluble TREM2 (sTREM2) (Homo sapiens, UniProt Q9NZC2); experiment: Soluble TREM2 (TREM2 shedding) assay in HEK293 TREM2/DAP12 cells; type: cell-based; parameters: key to STREM2: NC = no change; −− = reduced sTREM2; ++ = increased sTREM2; conditions: change in sTREM2 levels
T1 construct: expressed in transfected cells
T1 sequence (O43914 22-113 partner, one chain of several): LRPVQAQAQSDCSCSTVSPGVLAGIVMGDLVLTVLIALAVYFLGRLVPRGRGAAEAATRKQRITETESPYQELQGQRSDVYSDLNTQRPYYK
Description: HEK293 cells stably expressing human TREM2 and DAP12 were plated onto 96-well plates pre-coated with poly-D-lysine 4-16 hours prior to antibody treatment. Antibody supernatants or control antibodies were diluted into fresh complete media and added onto cells in triplicate. Cells were incubated with antibody containing media for 18 hours prior to removal of the cell supernatant for assay by TREM2 ELISA. Samples and standards were diluted 1:10 into blocking buffer (3% BSA/TBST) in the assay plate. Briefly, MSD small spot streptavidin plates were coated with biotinylated anti-hTREM2 polyclonal antibody (R&D Systems) overnight at 4° C. or 1 hour at room temperature. Plates were then blocked overnight at 4° C., or 1 hour at room temperature, with blocking buffer, 3% BSA/TBST. Plates were washed three times with TBST in a Biotek plate washer (used for all washes) prior to addition of diluent (blocking buffer) and denatured supernatants from cell culture. A TREM2-His protein diluted in 3% BSA/TBST was used as a standard for absolute quantification. Following 1 hour incubation at room temperature, plates were washed with TBST. The primary detection antibody, sulfo-tagged goat anti-human TREM2 (R&D Systems), diluted in 3% BSA/TBST was added and incubated for 1 hour at room temperature. After washing with TBST, MSD plates were developed using 2×MSD read buffer T, followed by detection using an MSD Sector plate reader. MSD values were converted to absolute quantities of sTREM2 by fitting a standard curve using Prism 7.0 software (Graphpad). Modulation of TREM2 shedding was represented as a ratio to cells cultured with no specific TREM2 antibody in the media.

TREM2 = target: T2, TREM2 (Homo sapiens, UniProt Q9NZC2); experiment: TREM2 PAM/pSyk assay on human macrophages; type: cell-based; conditions: for effect on lipid ligand activation of TREM2 (in words): FIG. 9B, human macrophages; for Slope + Liposome: pSyk, 10 nM antibody with 0, EC20, EC50, EC80 PS/PC liposomes, liposome-alone signal subtracted
T2 construct: macrophage cells that endogenously express TREM2; endogenous in cells; host or cells: primary human monocyte-derived macrophages from donor blood
T2 sequence (Q9NZC2 19-230): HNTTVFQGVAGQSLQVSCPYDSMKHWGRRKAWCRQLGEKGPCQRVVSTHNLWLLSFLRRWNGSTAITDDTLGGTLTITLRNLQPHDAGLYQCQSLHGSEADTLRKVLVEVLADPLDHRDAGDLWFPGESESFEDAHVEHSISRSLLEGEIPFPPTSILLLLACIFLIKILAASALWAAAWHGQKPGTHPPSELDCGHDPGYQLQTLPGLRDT
Description: Human macrophages were differentiated from donor blood using a human monocyte enrichment cocktail (Stem Cell Technologies) and culturing monocytes with human mCSF for five days in macrophage media (RPMI+10% Hyclone FBS+Glutamax+Pen/Strep+non-essential amino acids+sodium pyruvate). On the fifth day, the human macrophages were scraped from the flasks and were re-plated at 100,000 cells/well on a 96-well poly-D-lysine-coated plate in the macrophage media (without mCSF). The cells were incubated for 24 hours to adhere, then the media was removed.
Antibodies pre-mixed with lipid vesicles comprised of 70% DOPC and 30% POPS (made according to the procedure for making vesicles described above) diluted in HBSS were immediately added to the cells, and allowed to incubate for 5 minutes at 37° C. The liposome/antibody solution was removed, and 35 μL lysis buffer (Cell Signaling Technologies, CST) was added using the liquid handler. The lysate was then incubated at 4° C. for 30 minutes, then either frozen at −80° C. or immediately carried forward to a pSyk AlphaLISA assay as described above. […] The results of the assay are shown in FIG. 9B and in Table 8 below.

hTREM2 = target: T3, hTREM2 (Homo sapiens, UniProt Q9NZC2); experiment: Biacore T200 binding kinetics to hTREM2; conditions: analyte hTREM2
T3 construct: The ecto domain (residues 19-172) of TREM2 (UniProtKB—Q9NZC2); secretion signal of mouse Ig kappa chain V-III (P01661 aa 1-20) (N); made in house; host or cells: Expi293F
T3 sequence (Q9NZC2 19-172): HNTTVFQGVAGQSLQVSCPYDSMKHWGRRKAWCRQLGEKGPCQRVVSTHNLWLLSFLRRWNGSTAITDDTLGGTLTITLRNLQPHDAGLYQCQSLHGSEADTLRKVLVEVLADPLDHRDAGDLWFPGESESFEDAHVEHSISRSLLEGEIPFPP
Description: The binding of the TREM2/TfR-binding protein RS9.F6/3C35.21.17 to TREM2 and TfR was measured using SPR on a Biacore T200 instrument. To measure TfR binding, anti-human-Fab was immobilized on a CM5 chip, and the TREM2/TfR-binding protein was captured. Full-length human TfR or human TfR apical domain at serial dilution (e.g., concentrations of 1-1000 nM) was flowed over the chip (180 second association time) and then allowed to dissociate. Fitting was performed using a 1:1 binding model. To measure TREM2 binding, anti-human-Fc antibody was immobilized on a CM5 chip, and the TREM2/TfR-binding protein was captured. A range of concentrations of recombinant TREM2-His protein were flowed over the chip, and allowed to associate and dissociate. The resulting sensograms were fitted using a 1:1 Langmuir model to estimate kon and koff (FIG. 10).
The affinities of RS9.F6/3C35.21.17 for human TREM2 and TfR were determined by surface plasmon resonance using a Biacore™ T200. Biacore Series S CM5 sensor chips were immobilized with a mixture of two monoclonal mouse anti-Fab antibodies (Human Fab capture kit from GE Healthcare). Serial 3-fold dilutions of each antigen were injected at a flow rate of 30 μL/min. The binding of the antigens to captured antibody was monitored for 30 to 180 seconds and then their dissociation was monitored for 30-300 seconds in HBS-EP+running buffer (GE, # BR100669). Binding response was corrected by subtracting the RU from a blank flow cell. A 1:1 Languir model of simultaneous fitting of kon and koff was used for kinetics analysis.

STREM2 (soluble TREM2 (sTREM2)): NC
B1: 21D11: anti-TREM2 antibody clone; VH SEQ ID NO:14, VL SEQ ID NO:25 (antibody, V domains shown)
VH: QVQLQQSGAELARPGASVKLSCKASGYTFTSYWIQWVKQRPGQGLEWIGTIYPGDGDARYTQKFKGKATLTADKSSSTTYMQLNSLASEDSAVYYCARNGITTAGYYAMDYWGQGTSVTVSS
VL: DIQMTQSPASLSVSVGETVTITCRASENIYSNLAWYQQKQGRSPQLLVYAATNLADGVPSRFSGSGSGTQYSLKINSLQSEDFGYYYCQHFWGTPYTFGGGTKVEIK

effect on lipid ligand activation of TREM2 (in words) (TREM2): at least an additive effect | Slope + Liposome (TREM2): 878 | ka (hTREM2): 150000 M⁻¹ s⁻¹ | kd (hTREM2): 0.00034 s⁻¹ | STREM2 (soluble TREM2 (sTREM2)): NC
B2: RS9.F6: anti-TREM2 antibody clone; VH SEQ ID NO:24, VL SEQ ID NO:35 (antibody, V domains shown)
VH: QVQLQQPGAELVKPGASVKLSCKASGYTFTSYWMHWVKQSPGRGLEWIGRSDPTTGGTNYNEKFKTKATLTVDKPSSTAYMQLSSLTSDDSAVYYCVRTSGTGDYWGQGTSLTVSS
VL: DVVMTQTPLSLPVSLGDQASISCRSSQSLVHNNGNTFLHWYLQKPGQSPKLLIYKVSNRFSGVPDRFSGSGSGTDFTLKISRVEAEDLGVYFCSQTTHVPPTFGGGTKLEIK

effect on lipid ligand activation of TREM2 (in words) (TREM2): at least an additive effect | Slope + Liposome (TREM2): 94 | ka (hTREM2): 480000 M⁻¹ s⁻¹ | kd (hTREM2): 0.019 s⁻¹ | STREM2 (soluble TREM2 (sTREM2)): NC
B3: 3D3.A1: anti-TREM2 antibody clone; VH SEQ ID NO:18, VL SEQ ID NO:29 (antibody, V domains shown)
VH: EVQLQQSGPELVKPGASVKISCKTSGYTLSEYTMHWVIQSHGKSLEWIGGVIPNSGGTSYNQKFRDKASLTVDKSSSTAYLELRSLTSEDSAVYYCARGDDSYRRGYALDYWGQGTSVTVSS
VL: DIVMSQSPSSLAVSVGEKVTMSCKSSQSLLYSSNQKSYLAWYQQKPGQSPKLLIYWASTRESGVPDRFRGSGSGTDFTLTISSVKAEDLAVYYCQQYFSYPPTFGGGTKLEIK
